Experimental data taken from PMC4336777.

Substrate: CC(=O)N1c2ccc(O)cc2Oc2cc(O)ccc21
Assay: purified protein, by the assay type
[1] = other: Lineweaver-Burk curves in the absence of inhibitor
[2] = other: initial velocities, plate reader, MPO 23 nM, H2O2 22 μM, error 2 x SD

B1: Myeloperoxidase (MPO) (Homo sapiens) (protein)
chain 1: not shown
chain 2: VNCETSCVQQPPCFPLKIPPNDPRIKNQADCIPFFRSCPACPGSNITIRNQINALTSFVDASMVYGSEEPLARNLRNMSNQLGLLAVNQRFQDNGRALLPFDNLHDDPCLLTNRSARIPCFLAGDTRSSEMPELTSMHTLLLREHNRLATELKSLNPRWDGERLYQEARKIVGAMVQIITYRDYLPLVLGPTAMRKYLPTYRSYNDSVDPRIANVFTNAFRYGHTLIQPFMFRLDNRYQPMEPNPRVPLSRVFFASWRVVLEGGIDPILRGLMATPAKLNRQNQIAVDEIRERLFEQVMRIGLDLPALNMQRSRDHGLPGYNAWRRFCGLPQPETVGQLGTVLRNLKLARKLMEQYGTPNNIDIWMGGVSEPLKRKGRVGPLLACIIGTQFRKLRDGDRFWWENEGVFSMQQRQALAQISLPRIICDNTGITTVSKNNIFMSNSYPRDFVNCSTLPALNLASWREAS
Km [1]: 28.8 µM | kcat [1]: 207 s⁻¹ | Km [2]: 31 ± 4 µM | kcat [2]: 186 ± 6 s⁻¹
